Laboratory results from paper PMC12627605 (Nature Communications, 2025).

Columns and labels:
GST-PP2C51 = molecular target: T1, GST-PP2C51 (rice, UniProt Q65XK7 1-381); assay: pull-down
T1 sequence: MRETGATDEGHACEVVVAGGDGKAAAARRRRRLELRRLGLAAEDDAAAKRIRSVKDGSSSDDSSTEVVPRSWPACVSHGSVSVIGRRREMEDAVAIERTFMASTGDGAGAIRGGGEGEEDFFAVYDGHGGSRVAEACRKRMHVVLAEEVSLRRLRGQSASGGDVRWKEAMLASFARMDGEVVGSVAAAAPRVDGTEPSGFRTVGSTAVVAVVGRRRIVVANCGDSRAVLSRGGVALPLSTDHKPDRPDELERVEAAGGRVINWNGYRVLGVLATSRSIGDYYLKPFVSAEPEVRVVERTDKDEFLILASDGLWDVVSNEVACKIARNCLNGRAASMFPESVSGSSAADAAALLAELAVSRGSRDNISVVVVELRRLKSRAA

GST-PP2C30 = molecular target: T2, GST-PP2C30 (rice, UniProt Q84JI0 1-404); assay: pull-down
T2 sequence: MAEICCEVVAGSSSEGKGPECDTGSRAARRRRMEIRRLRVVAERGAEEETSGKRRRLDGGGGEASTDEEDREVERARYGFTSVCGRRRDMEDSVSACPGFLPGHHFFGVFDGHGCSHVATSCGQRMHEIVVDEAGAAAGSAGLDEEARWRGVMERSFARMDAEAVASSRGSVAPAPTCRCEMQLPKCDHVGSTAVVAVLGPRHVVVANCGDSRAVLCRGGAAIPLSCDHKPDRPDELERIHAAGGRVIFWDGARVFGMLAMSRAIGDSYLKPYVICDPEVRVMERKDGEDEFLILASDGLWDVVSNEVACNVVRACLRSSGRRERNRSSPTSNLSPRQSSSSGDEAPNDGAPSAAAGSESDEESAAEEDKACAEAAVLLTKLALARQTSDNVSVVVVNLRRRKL

binding result (GST-PP2C51): binds | binding result (GST-PP2C30): binds
B1: SAPK2-His (natural protein)
chain: MERYEVIKDIGSGNFGVAKLVRDVRTKELFAVKFIERGQKIDENVQREIMNHRSLRHPNIVRFKEVVLTPTHLAIVMEYAAGGELFERICSAGRFSEDEARFFFQQLISGVSYCHSMQICHRDLKLENTLLDGSIAPRLKICDFGYSKSSLLHSQPKSTVGTPAYIAPEVLARKEYDGKVADVWSCGVTLYVMLVGAYPFEDPDEPRNFRKTITRILSVQYMVPDYVRVSMECRHLLSRIFVANPEQRITIPEIKNHPWFLKNLPIEMTDEYQMSVQMNDINTPSQGLEEIMAIIQEARKPGDGSKFSGQIPGLGSMELDDVDTDDIDVEDSGDFVCAL
